# Source: paper doi:10.1101/2023.08.25.554800, “CryoEM architecture of a native stretch-sensitive membrane microdomain” (bioRxiv, 2023)
# Target: the molecule itself
# Assay: cryo-EM structure; 15-20uM recombinant Pil1 with ~2mg/mL LUVs of three lipid mixtures (-PI(4,5)P2/+sterol, +PI(4,5)P2/-sterol, +PI(4,5)P2/+sterol), 30°C for 1hr, 20 mM HEPES pH 7.4, 150 mM KoAc, 2 mM MgAc; helical reconstruction
protein,measurement,value
"Recombinant Pil1 (natural protein, S. cerevisiae, UniProt P53252 1-339, looked up, Pil1 of S. cerevisiae, PIL1 cloned into pCoofy6; the printed primers run from the ATG to the stop codon; The N-terminal position of Sumo3 is read from the primer LP1-Sumo3-Pil1-fwd; also called reconstituted Pil1; source: E. coli BL21(DE3)pLysS, purified (HisTrap, HiTrap Q, Sumo3 cleaved with SenP2, Superdex 200); not shown: Sumo3, N-terminal, cleaved) MHRTYSLRNSRAPTASQLQNPPPPPSTTKGRFFGKGGLAYSFRRSAAGAFGPELSRKLSQLVKIEKNVLRSMELTANERRDAAKQLSIWGLENDDDVSDITDKLGVLIYEVSELDDQFIDRYDQYRLTLKSIRDIEGSVQPSRDRKDKITDKIAYLKYKDPQSPKIEVLEQELVRAEAESLVAEAQLSNITRSKLRAAFNYQFDSIIEHSEKIALIAGYGKALLELLDDSPVTPGETRPAYDGYEASKQIIIDAESALNEWTLDSAQVKPTLSFKQDYEDFEPEEGEEEEEEDGQGRWSEDEQEDGQIEEPEQEEEGAVEEHEQVGHQQSESLPQQTTA",binding result,binds
